Results on 2 molecules are retold here after patent US20160319287A1.

What all share (assay): cell-based or functional assay
Test [1] deals with MBP-Int^C-TycB1 with the AceL-TerL MX1 mutant (M1^C).
In test [2] the target is M1^C-Trx-H6 (AceL-TerL Int^C mutant M1: N46D, L55Q) [thioredoxin: P0AA25].
In test [3] the target is M2^C-Trx-H6 (AceL-TerL Int^C mutant M2: S38G, N46I, N54D, L55Q) [thioredoxin: P0AA25].

No end group written: not given here. FI = 5(6)-carboxyfluorescein

MBP-Int^C-TycB1 with the AceL-TerL MX1 mutant (M1^C), sequence (main, as listed by the source, stated change not applied): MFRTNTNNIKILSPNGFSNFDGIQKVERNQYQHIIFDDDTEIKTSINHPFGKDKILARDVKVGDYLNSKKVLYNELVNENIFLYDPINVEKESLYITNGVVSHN
M1^C-Trx-H6 (AceL-TerL Int^C mutant M1: N46D, L55Q) [thioredoxin: P0AA25], sequence (P0AA25 other isoform, or with tags, fused parts or gaps N46D L55Q N46D L55Q): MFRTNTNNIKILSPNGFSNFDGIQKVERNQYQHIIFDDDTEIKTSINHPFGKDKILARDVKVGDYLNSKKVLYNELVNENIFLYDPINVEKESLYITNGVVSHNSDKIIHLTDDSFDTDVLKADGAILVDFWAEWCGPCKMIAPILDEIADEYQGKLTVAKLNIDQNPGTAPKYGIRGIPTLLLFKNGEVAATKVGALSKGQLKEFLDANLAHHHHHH
M2^C-Trx-H6 (AceL-TerL Int^C mutant M2: S38G, N46I, N54D, L55Q) [thioredoxin: P0AA25], sequence (P0AA25 other isoform, or with tags, fused parts or gaps S38G N46I N54D L55Q S38G N46I N54D L55Q): as the sequence (P0AA25 other isoform, or with tags, fused parts or gaps N46D L55Q N46D L55Q) above, with S13G, D21I, N29D counted along it

In test [1], {FI}-KKEFECVYGDTMVETEDGKIKIEDLYKRLA [pepWT^N (FI-KKEFE-IntN), synthetic peptide with the Int^N of the AceL-TerL intein] registered a splicing rate at 8° C. against the M86 DnaB mutant intein of 13 fold higher, a splicing rate at 8° C. against the unevolved wild-type AceL-TerL intein of 15 fold higher and a splicing yield at 8° C. of 80 to 95%.

Take {FI}-KKEFECVSGDTMVETEDGKIKIEDLYKRLA [pepM3^N (FI-KKEFE-IntN with the M3 Int^N, Y3S)]: the splicing rate at 37° C. against the wild-type came out at 29 fold faster in test [2] and 56 fold faster in test [3].
